# Data reported in patent US20050123920A1.
# Legend:
# [1] = target: HA-VHL (UniProt P40337); experiment: co-immunoprecipitation of cotransfected proteins
# [2] = target: FL-Jade-1 (tagged library clone, transfected) (human); experiment: co-immunoprecipitation of cotransfected proteins
# [3] = target: human Jade-1 protein (human); experiment: cell-based or functional assay
# [4] = target: human Jade-1 protein (human); experiment: estimate based upon co-localization data (immunofluorescence)
# UniProt P40337, sequence (P40337 whole entry): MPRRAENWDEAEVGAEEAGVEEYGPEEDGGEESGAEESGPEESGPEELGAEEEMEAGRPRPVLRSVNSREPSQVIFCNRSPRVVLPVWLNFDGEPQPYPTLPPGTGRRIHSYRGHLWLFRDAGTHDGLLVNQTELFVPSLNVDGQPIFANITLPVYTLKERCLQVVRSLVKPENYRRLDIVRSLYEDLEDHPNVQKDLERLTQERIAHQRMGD
substance,measurement,setting,value
"FL-Jade-1 (tagged library clone, transfected)",percent of Jade-1 in the cell lysate immunoprecipitable with VHL,[1],30 to 40%
HA-VHL (from UniProt P40337 1-213),percent of VHL in the cell lysate immunoprecipitable with Jade-1 (vice-versa),[2],30 to 40%
"von Hippel-Lindau (VHL) protein, wild-type human (from UniProt P40337 1-213)","endogenous Jade-1 protein half-life in VHL-plus 786-O renal cancer cells (~40 minutes in VHL-minus cells), metabolic labeling",[3],1 h
same,half-life of Jade-1 transiently transfected with VHL (data not shown),[3],1.5 h
same,"increase of Jade-1 protein half-life with cotransfected VHL in 293 cells, pulse-chase",[3],2 fold
same,percent of VHL that associates with Jade-1,[4],< 10%
